According to publication PMC2804221:
pIC50: −log10 of the molar value.

Columns and labels:
[1] = target: GLP-1 receptor E68A (human) (UniProt P43220); assay: radioligand binding
[2] = target: GLP-1 receptor E127Q (human) (UniProt P43220); assay: radioligand binding
[3] = target: GLP-1 receptor E127A (human) (UniProt P43220); assay: radioligand binding
[4] = target: GLP-1 receptor L32A (human) (UniProt P43220); assay: radioligand binding
[5] = target: Wild-type human GLP-1 receptor, full length (human) (UniProt P43220); assay: radioligand binding
[6] = target: GLP-1 receptor T35A (human) (UniProt P43220); assay: radioligand binding
[7] = target: GLP-1 receptor E128Q (human) (UniProt P43220); assay: radioligand binding
[8] = target: GLP-1 receptor R121A (human) (UniProt P43220); assay: radioligand binding
[9] = target: GLP-1 receptor V36A (human) (UniProt P43220); assay: radioligand binding
[10] = target: GLP-1 receptor L123A (human) (UniProt P43220); assay: radioligand binding
[11] = target: GLP-1 receptor E128A (human) (UniProt P43220); assay: radioligand binding
[12] = target: GLP-1 receptor P90A (human) (UniProt P43220); assay: radioligand binding
[13] = target: GLP-1 receptor E68A (human) (UniProt P43220)
[14] = target: GLP-1 receptor E127Q (human) (UniProt P43220)
[15] = target: GLP-1 receptor E127A (human) (UniProt P43220)
[16] = target: GLP-1 receptor L32A (human) (UniProt P43220)
[17] = target: Wild-type human GLP-1 receptor, full length (human) (UniProt P43220)
[18] = target: GLP-1 receptor T35A (human) (UniProt P43220)
[19] = target: GLP-1 receptor E128Q (human) (UniProt P43220)
[20] = target: GLP-1 receptor R121A (human) (UniProt P43220)
[21] = target: GLP-1 receptor V36A (human) (UniProt P43220)
[22] = target: GLP-1 receptor L123A (human) (UniProt P43220)
[23] = target: GLP-1 receptor E128A (human) (UniProt P43220)
[24] = target: GLP-1 receptor P90A (human) (UniProt P43220)

GLP-1 receptor E68A (human), sequence (P43220 24-463 E68A): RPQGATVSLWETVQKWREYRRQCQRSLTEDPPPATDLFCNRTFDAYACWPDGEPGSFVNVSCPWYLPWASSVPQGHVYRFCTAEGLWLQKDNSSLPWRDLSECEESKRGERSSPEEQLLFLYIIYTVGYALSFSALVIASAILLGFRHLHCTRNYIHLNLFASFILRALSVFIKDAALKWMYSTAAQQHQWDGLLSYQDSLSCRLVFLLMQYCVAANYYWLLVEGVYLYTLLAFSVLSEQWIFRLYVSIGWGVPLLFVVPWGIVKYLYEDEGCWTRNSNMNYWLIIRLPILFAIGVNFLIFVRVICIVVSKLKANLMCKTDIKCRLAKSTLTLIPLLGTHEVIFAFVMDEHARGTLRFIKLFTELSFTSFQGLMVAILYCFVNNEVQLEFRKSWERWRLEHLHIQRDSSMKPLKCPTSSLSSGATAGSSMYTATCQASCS
Wild-type human GLP-1 receptor, full length (human), sequence (P43220 24-463): as the sequence (P43220 24-463 E68A) above, with A45E counted along it
GLP-1 receptor E128A (human), sequence (P43220 24-463 E128A): as the sequence (P43220 24-463 E68A) above, with A45E, E105A counted along it
GLP-1 receptor L32A (human), sequence (P43220 24-463 L32A): as the sequence (P43220 24-463 E68A) above, with L9A, A45E counted along it
GLP-1 receptor T35A (human), sequence (P43220 24-463 T35A): as the sequence (P43220 24-463 E68A) above, with T12A, A45E counted along it
GLP-1 receptor V36A (human), sequence (P43220 24-463 V36A): as the sequence (P43220 24-463 E68A) above, with V13A, A45E counted along it
GLP-1 receptor E127A (human), sequence (P43220 24-463 E127A): as the sequence (P43220 24-463 E68A) above, with A45E, E104A counted along it
GLP-1 receptor R121A (human), sequence (P43220 24-463 R121A): as the sequence (P43220 24-463 E68A) above, with A45E, R98A counted along it
GLP-1 receptor P90A (human), sequence (P43220 24-463 P90A): as the sequence (P43220 24-463 E68A) above, with A45E, P67A counted along it
GLP-1 receptor E128Q (human), sequence (P43220 24-463 E128Q): as the sequence (P43220 24-463 E68A) above, with A45E, E105Q counted along it
GLP-1 receptor L123A (human), sequence (P43220 24-463 L123A): as the sequence (P43220 24-463 E68A) above, with A45E, L100A counted along it
GLP-1 receptor E127Q (human), sequence (P43220 24-463 E127Q): as the sequence (P43220 24-463 E68A) above, with A45E, E104Q counted along it

With “Exendin-4 (from UniProt P26349 48-87) (peptide)” the pIC50 [1] was 9.32, the pIC50 [2] was 9.09 and the pIC50 [3] was 8.28. It also gave a pIC50 [4] of 8.27, a pIC50 [5] of 9.12 and a pIC50 [6] of 9.36. For the same substance, the pIC50 [7] was 9.35, the pIC50 [8] was 8.92 and the pIC50 [9] was 9.01. It also gave a pIC50 [10] of 9.48, a pIC50 [11] of 8.74 and a pIC50 [12] of 8.80. The EC50 of cAMP production, transiently transfected HEK293 cells [13] was 0.0095 nM, the EC50 of cAMP production, transiently transfected HEK293 cells [14] was 0.0068 nM and the EC50 of cAMP production, transiently transfected HEK293 cells [15] was 0.011 nM. The EC50 of cAMP production, transiently transfected HEK293 cells [16] was 0.052 nM, the EC50 of cAMP production, transiently transfected HEK293 cells [17] was 0.0055 nM and the EC50 of cAMP production, transiently transfected HEK293 cells [18] was 0.023 nM. It also gave an EC50 of cAMP production, transiently transfected HEK293 cells [19] of 0.008 nM, an EC50 of cAMP production, transiently transfected HEK293 cells [20] of 0.044 nM and an EC50 of cAMP production, transiently transfected HEK293 cells [21] of 0.036 nM. It also gave an EC50 of cAMP production, transiently transfected HEK293 cells [22] of 0.0095 nM, an EC50 of cAMP production, transiently transfected HEK293 cells [23] of 0.025 nM and an EC50 of cAMP production, transiently transfected HEK293 cells [24] of 0.03 nM.
